The text below walks through data of PMC3655159 (Journal of molecular biology, 2013).

This data set deals with the molecule itself. Nature of the data set: SDS-PAGE under mildly denaturing conditions.

B1: gB730 L700G/L711G (domain or fragment)
chain: not shown
Turning to B1, the stoichiometry N (commonly the number of molecules, sites or subunits per partner or assembly) was 3.
